Experimental data from patent US20090239794A1, “HCV F PROTEIN AND USES THEREOF” (priority 2004, published 2009).
“And” between values parts separate entries of the source, which are not always exact repeats. Equal entries are not always repeated.

System: C57Bl/6 mice
Experiment: Protocol 1: ARFP immunization of mice, total anti-ARFP Ig ELISA
[1] = individual mice 31-45, 1st immunization (day 0), listed as ARFP
[2] = individual mice 31-45, 2nd immunization (day 13), listed as ARFP
[3] = individual mice 31-45, 3d immunization (day 35), listed as ARFP
[4] = individual mice 31-45, Sacrifice (day 53), listed as ARFP

Description: Plates were blocked for 2 h/4° C. with 200 μl per well of 5 mg/ml bovine serum albumin (BSA) in 100 mM NaHCO3 pH 8.6, and were washed 6 times with 10 mM tris base, 150 mM NaCl, 0.05% Tween-20 pH 7.4 (1×TBST). […] After 90 min, optical density was measured at 410 nm in a MR7000 spectrophotometer (Dynatec, Chantilly, Va.).
In a first set of experiments, induction of ARFP-specific humoral (i.e. antibody) immune responses was tested as follows.
Protocol 1. […] Ten 5-week old female C57Bl/6 mice were injected with 100 μl phosphate-buffered saline and were used as controls. An identical immunization procedure was repeated on day 13, and again on day 35. 200 μl of blood was obtained by maxillary bleeding prior to each immunization (days 0, 13, and 35). Mice were sacrificed by CO2 asphyxiation and bled by cardiac puncture on day 53. All blood samples were centrifuged and sera was collected and frozen at −80° C. until used. Total immunoglobulin (Ig) responses (IgA, IgM, and IgG) were tested by enzyme-linked immuno-sorbent assay (ELISA) as described in Example 1, except that alkaline phosphatase-conjugated anti-mouse polyvalent immunoglobulins (G, A, M) (A-0162, Sigma, St. Louis, Mo.) were used instead of alkaline phosphatase-conjugated monoclonal anti-human IgG (A-2064, Sigma). […] Optical density was measured at 410 nm (Table 4). […] The ELISA threshold value was set at 3 times the OD410 measured in the negative control with the highest readout (highlighted in Table 6).

B1: Fmut8Δ11: truncated recombinant HCV-1a F protein lacking the first 11 N-terminal residues shared with core; SEQ ID NO: 12; produced in E. coli (protein)
chain: PNVTPTVAHRTSSSRVAVRSLVEFTCCRAGALDWVCARRGRLPSGRNLEVDVSLSPRHVGPRAGPGLSPGTLGPSMAMRAADGRDGSCLPVALGLVGAPQTPGVGRAIWVRSSIPSRAASPTSWGTYRSSAPPLEALPGPWRMASGFWRTA
modifications: Hepatitis C virus
Before the 2nd immunization
  ARFP-specific Ig titer, mean+/−standard deviation: 10.00+/−27.08
Day 35
  anti-ARFP Ig titer, mean+/−standard deviation: 1400+/−419.5
Day 53
  anti-ARFP Ig titer, mean+/−standard deviation: 1547+/−199.6
Individual mice 31-45, 1st immunization (day 0)
  Titer (anti-ARFP Ig ELISA): 0
[1]
  ELISA OD410, serum dilution 1/50: 0.211 and 0.209 and 0.199 and 0.218 and 0.323 and 0.278 and 0.229 and 0.166 and 0.236 and 0.243 and 0.247 and 0.208 and 0.206 and 0.205 and 0.217
  ELISA OD410, serum dilution 1/100: 0.128 and 0.115 (2×) and 0.174 and 0.208 and 0.186 and 0.171 and 0.152 and 0.161 (2×) and 0.145 and 0.134 and 0.132 and 0.142 and 0.127
  ELISA OD410, serum dilution 1/200: 0.123 and 0.150 and 0.128 and 0.136 (2×) and 0.114 and 0.111 and 0.121 and 0.113 (2×) and 0.104 and 0.117 and 0.164 and 0.144 and 0.140
  ELISA OD410, serum dilution 1/400: 0.132 and 0.164 and 0.114 and 0.118 and 0.116 and 0.121 and 0.133 and 0.115 and 0.104 and 0.110 and 0.120 and 0.128 and 0.191 and 0.138 and 0.126
  ELISA OD410, serum dilution 1/800: 0.119 and 0.138 and 0.113 and 0.118 and 0.115 (2×) and 0.117 and 0.128 and 0.108 and 0.103 and 0.105 and 0.123 and 0.134 and 0.137 and 0.114
  ELISA OD410, serum dilution 1/1600: 0.138 and 0.122 and 0.109 (2×) and 0.110 and 0.116 and 0.124 and 0.108 and 0.106 and 0.107 and 0.105 and 0.119 and 0.129 and 0.127 and 0.114
[2]
  ELISA OD410, serum dilution 1/50: 0.732 and 0.272 and 0.750 and 0.293 and 0.231 and 0.965 and 0.137 and 0.916 and 0.132 and 0.13 and 0.186 and 0.049 and 0.046 and 0.048 and 0.045
  ELISA OD410, serum dilution 1/100: 0.306 and 0.117 and 0.197 and 0.157 and 0.138 and 0.890 and 0.113 and 0.742 and 0.112 and 0.116 and 0.105 and 0.045 and 0.053 and 0.048 and 0.046
  ELISA OD410, serum dilution 1/200: 0.165 and 0.113 and 0.166 and 0.127 and 0.160 and 0.815 and 0.108 and 0.441 and 0.107 (2×) and 0.111 and 0.102 and 0.798 and 0.116 and 0.123
  ELISA OD410, serum dilution 1/400: 0.147 and 0.110 (2×) and 0.154 and 0.121 and 0.117 and 0.677 and 0.328 and 0.107 and 0.105 and 0.115 and 0.101 and 0.279 and 0.103 and 0.120
  ELISA OD410, serum dilution 1/800: 0.124 and 0.106 (5×) and 0.137 and 0.123 and 0.125 and 0.454 and 0.105 and 0.219 and 0.099 and 0.097 and 0.273
  ELISA OD410, serum dilution 1/1600: 0.120 (2×) and 0.118 (2×) and 0.119 and 0.590 and 0.104 and 0.171 and 0.105 and 0.108 and 0.103 and 0.096 and 0.223 and 0.110 (2×)
  Titer (anti-ARFP Ig ELISA): 0 (13×) and 100 and 50
[3]
  ELISA OD410, serum dilution 1/50: 3.652 and 3.551 and 3.142 and 3.623 and 3.509 and 3.334 and 3.530 and 3.887 and 3.464 and 3.796 and 1.628 and 1.467 and 2.140 and 2.336 and 2.453
  ELISA OD410, serum dilution 1/100: 3.642 and 2.683 and 3.700 and 2.841 and 3.563 and 3.625 and 3.306 and >4.000 (2×) and 3.808 and 1.093 and 1.941 and 2.487 and 1.264 and 2.058
  ELISA OD410, serum dilution 1/200: 3.616 and 2.046 and 3.630 and 2.088 and 3.556 and 3.596 and 2.436 and 3.957 and 3.541 and >4.000 and 3.494 and 2.657 and 1.722 and 0.993 and 1.772
  ELISA OD410, serum dilution 1/400: 3.569 and 1.681 and 3.296 and 1.522 and 3.465 and 3.590 and 1.859 and 3.799 and 3.582 and 3.896 and 3.238 and 2.397 and 1.929 and 0.725 and 1.607
  ELISA OD410, serum dilution 1/800: 3.434 and 1.072 and 3.166 and 0.937 and 3.213 and 3.438 and 1.297 and 3.425 and 3.053 and 2.776 and 2.442 and 2.015 and 1.185 and 0.508 and 1.517
  ELISA OD410, serum dilution 1/1600: 3.521 and 0.641 and 3.190 and 0.590 and 3.181 and 3.455 and 0.931 and 3.139 and 2.783 and 1.989 and 1.713 and 1.578 and 0.957 and 0.408 and 1.453
  Titer (anti-ARFP Ig ELISA): >1600 (12×) and 800 (2×) and 200
[4]
  ELISA OD410, serum dilution 1/50: 2.023 and 2.008 and 1.658 and 1.054 and 1.709 and 1.411 and 1.314 and 1.736 and 2.224 and 1.741 and 1.006 and 1.424 and 1.613 and 1.434 and 1.373
  ELISA OD410, serum dilution 1/100: 2.028 and 1.542 and 1.830 and 1.646 and 1.839 and 1.829 and 1.483 and 2.139 and 1.904 and 1.714 and 1.872 and 1.790 and 1.912 and 1.489 and 1.880
  ELISA OD410, serum dilution 1/200: 2.202 and 2.602 and 1.876 and 1.837 and 1.805 and 2.091 and 1.948 and 2.168 and 2.422 and 1.540 and 1.773 and 1.658 and 1.724 and 1.471 and 2.006
  ELISA OD410, serum dilution 1/400: 2.376 and 2.547 and 1.889 and 1.913 and 1.776 and 2.225 and 1.925 and 2.356 and 2.456 and 1.266 and 1.783 and 1.907 and 1.312 and 1.223 and 1.919
  ELISA OD410, serum dilution 1/800: 2.490 and 1.574 and 1.874 and 1.814 and 1.617 and 2.117 and 1.671 and 1.664 and 2.196 and 0.928 and 1.825 and 2.059 and 1.478 and 1.136 and 2.197
  ELISA OD410, serum dilution 1/1600: 2.209 and 1.970 and 2.157 and 1.987 and 1.674 and 2.269 and 1.574 and 1.671 and 1.659 and 0.648 and 1.749 and 2.062 and 1.233 and 1.157 and 1.672
  Titer (anti-ARFP Ig ELISA): >1600 (14×) and 800
